# Earlier results in paper PMC10219547.
# Where two headings read alike, the source gives them in different places.
# How the values were obtained:
# PTH1R (Homo sapiens) [1] = biological target: PTH1R (Homo sapiens) (UniProt Q03431)
# PTH1R (Homo sapiens) [2] = biological target: PTH1R (Homo sapiens) (UniProt Q03431); remark: listed apart in the source
# Sequence of UniProt Q03431 (Q03431 27-593): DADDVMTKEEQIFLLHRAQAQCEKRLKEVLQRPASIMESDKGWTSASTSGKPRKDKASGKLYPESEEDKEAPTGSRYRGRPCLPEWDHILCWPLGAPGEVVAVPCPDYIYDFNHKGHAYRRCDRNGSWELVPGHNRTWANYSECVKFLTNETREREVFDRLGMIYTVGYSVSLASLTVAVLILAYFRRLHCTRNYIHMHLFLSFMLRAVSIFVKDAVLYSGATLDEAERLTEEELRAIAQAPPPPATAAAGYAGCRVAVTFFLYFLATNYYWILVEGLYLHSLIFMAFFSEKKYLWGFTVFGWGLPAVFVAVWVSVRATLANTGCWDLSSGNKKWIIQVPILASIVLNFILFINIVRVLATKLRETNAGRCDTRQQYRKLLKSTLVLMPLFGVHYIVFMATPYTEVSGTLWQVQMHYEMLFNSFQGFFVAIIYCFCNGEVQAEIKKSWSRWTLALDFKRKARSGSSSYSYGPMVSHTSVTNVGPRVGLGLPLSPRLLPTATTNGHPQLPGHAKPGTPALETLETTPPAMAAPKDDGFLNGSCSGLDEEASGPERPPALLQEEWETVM
Kd (PTH1R (Homo sapiens) [1]) [nM],Kd (PTH1R (Homo sapiens) [2]) [nM],Substance
60,–,TIP39 (from UniProt Q96A98)
–,17,TIP(7-39) 7-39 (from UniProt Q96A98)
